Experimental data published in patent publication US20200332017A1 (SALUBRIS CHENGDU BIOTECH, published 2020).
Read-outs that look alike come from different tables or passages of the source.

Legend:
[1] = biological target: T1, full length human CD40 (uniprot # P25942-1) on the membrane of 293T-CD40 cells (human, UniProt P25942 21-277); assay: flow cytometry on 293T-CD40 cells
T1 construct: also called cell surface CD40
Description: (§1) 2×10⁵ cells per well in 96 well-plates were incubated with the mouse anti-CD40 antibodies or the controls of various concentrations in FACS buffer for 40 minutes on ice. […] Following an incubation of 40 minutes at 4° C. in dark, cells were washed three times and resuspended in FACS buffer. Fluorescence was measured using a Becton Dickinson FACS Canto II-HTS equipment and plotted against antibody concentration.

[2] = biological target: T2, human CD40-Fc protein (amino acid residue 21-193 of SEQ ID NO: 67 linked to N-terminus of amino acid residue … (human, biotin-labeled in the capture ELISA and in the benchmark blocking ELISA; unlabeled when coated in the ligand blocking ELISA); assay: capture ELISA, biotin human CD40-Fc; mAb at 80 ng/mL
T2 construct: also called biotin-labeled human CD40-Fc; human CD40-Fc-biotin
Description: (§2) Plates were washed 4 times with wash buffer (PBS+0.05% Tween-20, PBST) and then blocked with 200 μl/well blocking buffer (5% w/v non-fatty milk in PBST) for 2 hours at 37° C. […] After a final wash, plates were incubated with 100 μl/well ELISA substrate TMB (Innoreagents, Cat # TMB-S-002). The reaction was stopped in 15 minutes at 25° C. with 50 μl/well 1M H₂SO₄, and the absorbance was read at 450 nm and plotted against antibody concentration. Data were analyzed using Graphpad Prism software and EC₅₀ values were reported.

[3] = biological target: T2, human CD40-Fc protein (amino acid …); assay: capture ELISA, biotin human CD40-Fc; mAb at 3.2 ng/mL
Description: as §2

[4] = biological target: T2, human CD40-Fc protein (amino acid …); assay: capture ELISA, biotin human CD40-Fc; mAb at 0.64 ng/mL
Description: as §2

[5] = biological target: T2, human CD40-Fc protein (amino acid …); assay: capture ELISA, biotin human CD40-Fc; mAb at 0 ng/mL (blank)
Description: as §2

[6] = biological target: T2, human CD40-Fc protein (amino acid …); assay: capture ELISA; antibody captured, biotin-labeled human CD40-Fc in solution
Description: as §2
In the capture ELISA test, a mouse control antibody targeting a protein other than CD40 was used.

[7] = biological target: T2, human CD40-Fc protein (amino acid …); assay: as above; remark: listed apart in the source
Description: as §2

[8] = biological target: T1, full length human CD40 (uniprot # …); assay: flow cytometry on 293T-CD40 cells, PE-labeled secondary antibody, MFI
Description: as §1

[9] = biological target: T2, human CD40-Fc protein (amino acid …); assay: ligand blocking ELISA: human CD40-Fc coated, antibody titrated, then biotin-labeled human CD40L-his (blocked ligand), streptavidin-HRP, OD(450-630)
Description: Serially diluted the mouse anti-CD40 antibodies of the present invention or the controls (starting at 200 nM with a four-fold serial dilution) in 2.5% w/v non-fatty milk in PBST were prepared to the plates and incubated with the human CD40-Fc proteins at room temperature for 40 minutes. […] Plates were washed again. 100 μl/well of streptavidin conjugated HRP was added and incubated for 40 minutes at 37° C. Plates were washed again using wash buffer. Finally, TMB was added and the reaction was stopped using 1M H₂SO₄, and the absorbance was read at 450 nm. Data were analyzed using Graphpad Prism software and IC₅₀ values were reported.

[10] = biological target: T2, human CD40-Fc protein (amino acid …); assay: benchmark blocking ELISA: BM2 (Selicrelumab) coated as competitor, antibody titrated in biotin-labeled human CD40-Fc solution, streptavidin-HRP, OD(450-630)
Description: The ability of the mouse anti-CD40 antibodies of the present invention to block the binding of the Benchmark to human CD40 was measured using a competitive ELISA assay. […] The next day, plates were washed with wash buffer, and blocked with 5% w/v non-fatty milk in PBST for 2 hours at 37° C. Plates were then washed again using wash buffer. […] After incubation at 37° C. for 40 minutes, plates were washed 4 times using wash buffer. Then streptavidin conjugated HRP was added and incubated for 40 minutes at 37° C. to detect biotin-labeled human CD40-Fc bound to plates. Plates were washed again using wash buffer. Finally, TMB was added and the reaction was stopped using 1M H₂SO₄, and the absorbance was read at 450 nm. Data were analyzed using Graphpad Prism software and IC₅₀ values were reported.

| EC50 [1] | absorbance at 450 nm [2] | absorbance at 450 nm [3] | absorbance at 450 nm [4] | absorbance at 450 nm [5] | EC50 [6] | EC50 [7] | EC50 (read off the curve) [8] | IC50 (read off the curve) [9] | IC50 (read off the curve) [10] | Binder |
| --- | --- | --- | --- | --- | --- | --- | --- | --- | --- | --- |
| 1.86 nM | 1.48 OD450 | 0.288 OD450 | 0.142 OD450 | 0.124 OD450 | 0.192 nM | 0.000155 µg/mL | ~0.3 µg/mL | ~0.8 µg/mL | ~0.5 nM | mouse anti-CD40 monoclonal antibody C1C1 (antibody, V domains shown, those are used here for the chimeric antibody only; also called Mouse C1C1; mouse C1C1) VH: EVKLVESGGGLVKPGASLKLSCAASGFTFSNYGMSWVRQNSDKRLEWVASISSGGDDTYYPDNVKGRCTISRENAKNTLYLEMSSLKTEDTALYYCTRAGGKAMDYWGQGTSVTVST VL: DIVLTQSPATLSVIPGNSVSLSCRASQSIRDNLHWYQQKSHESPRLLINYASQSISGIPSRFSGSGSGTDFTLTINSVETEDFGIYFCQQFNSWPLTFGGGTKLELK |
| 1.82 nM | 1.17 OD450 | 0.082 OD450 | 0.035 OD450 | 0.028 OD450 | 0.24 nM | 0.000384 µg/mL | ~0.3 µg/mL | ~0.8 µg/mL | ~0.02 µg/mL | chimeric antibody C1C1 (antibody, human IgG1, kappa, V domains shown, also called chC1C1; chimeric C1C1) VH: EVKLVESGGGLVKPGASLKLSCAASGFTFSNYGMSWVRQNSDKRLEWVASISSGGDDTYYPDNVKGRCTISRENAKNTLYLEMSSLKTEDTALYYCTRAGGKAMDYWGQGTSVTVST VL: DIVLTQSPATLSVIPGNSVSLSCRASQSIRDNLHWYQQKSHESPRLLINYASQSISGIPSRFSGSGSGTDFTLTINSVETEDFGIYFCQQFNSWPLTFGGGTKLELKR |
